Consider 48 variants from the Human Domainome abundance scans (Beltran et al. 2025).

Sequences and labels used below:
B1: SH3 and PX domain-containing protein 2B, residues 155 to 209; numbered along this chain, A1X283 (parent)
chain: EQYVVVANYQKQESSEISLSVGQVVDIIEKNESGWWFVSTAEEQGWVPATCLEGQ

± gives the uncertainty stated by the source.

This data set covers variants of B1. As to the kind of experiment: abundance fitness (aPCA) (normalised: wild type 0, dead -1); higher = more abundant; growth selection in yeast, the domain comes from the species named. To be noted: Homo sapiens.
For EQYVVVANYQKQESSEISLSVGQVVDIIEKNESGWWFVSTAEEQGWAPATCLEGQ [V47A], the abundance fitness is -0.106 ± 0.083.
EQYVVVANYQKQESSEISLSVGQVVDIIEKNESGWWFVSTAEEQGWYPATCLEGQ [V47Y]: the abundance fitness is -0.45 ± 0.13.
With EQYVVVANYQKQESSEISLSVGQVVDIIEKNESGWWFVSTAEEQGWWPATCLEGQ [V47W], the abundance fitness was -1.11 ± 0.18.
EQYVVVANYQKQESSEISLSVGQVVDIIEKNESGWWFVSTAEEQGWLPATCLEGQ [V47L]: the abundance fitness was -0.319 ± 0.076.
For EQYVVVANYQKQESSEISLSVGQVVDIIEKNESGWWFVSTAEEQGWMPATCLEGQ [V47M] the value was -0.453 ± 0.15; for EQYVVVANYQKQESSEISLSVGQVVDIIEKNESGWWFVSTAEEQGWSPATCLEGQ [V47S], -0.567 ± 0.098.
On to EQYVVVANYQKQESSEISLSVGQVVDIIEKNESGWWFVSTAEEQGWTPATCLEGQ [V47T], for which the abundance fitness was -0.552 ± 0.13.
As to EQYVVVANYQKQESSEISLSVGQVVDIIEKNESGWWFVSTAEEQGWEPATCLEGQ [V47E], the abundance fitness was -0.776 ± 0.14.
On to EQYVVVANYQKQESSEISLSVGQVVDIIEKNESGWWFVSTAEEQGWDPATCLEGQ [V47D], for which the abundance fitness was -1.1 ± 0.22.
Regarding EQYVVVANYQKQESSEISLSVGQVVDIIEKNESGWWFVSTAEEQGWIPATCLEGQ [V47I], the abundance fitness was found to be 0.11 ± 0.21.
To EQYVVVANYQKQESSEISLSVGQVVDIIEKNESGWWFVSTAEEQGWNPATCLEGQ [V47N] belongs -1.05 ± 0.23; to EQYVVVANYQKQESSEISLSVGQVVDIIEKNESGWWFVSTAEEQGWGPATCLEGQ [V47G], -0.493 ± 0.073.
For EQYVVVANYQKQESSEISLSVGQVVDIIEKNESGWWFVSTAEEQGWCPATCLEGQ [V47C], the abundance fitness was 0.001 ± 0.089.
Regarding EQYVVVANYQKQESSEISLSVGQVVDIIEKNESGWWFVSTAEEQGWFPATCLEGQ [V47F], the abundance fitness was -0.229 ± 0.097.
Consider EQYVVVANYQKQESSEISLSVGQVVDIIEKNESGWWFVSTAEEQGWHPATCLEGQ [V47H], for which the abundance fitness is -0.967 ± 0.27.
Regarding EQYVVVANYQKQESSEISLSVGQVVDIIEKNESGWWFVSTAEEQGWKPATCLEGQ [V47K], the abundance fitness is -0.929 ± 0.25.
In the case of EQYVVVANYQKQESSEISLSVGQVVDIIEKNESGWWFVSTAEEQGWPPATCLEGQ [V47P], the abundance fitness is -0.922 ± 0.18.
To EQYVVVANYQKQESSEISLSVGQVVDIIEKNESGWWFVSTAEEQGWRPATCLEGQ [V47R] belongs -0.72 ± 0.093; to EQYVVVANYQKQESSEISLSVGQVVDIIEKNESGWWFVSTAEEQGEVPATCLEGQ [W46E], -0.91 ± 0.14; to EQYVVVANYQKQESSEISLSVGQVVDIIEKNESGWWFVSTAEEQGRVPATCLEGQ [W46R], -0.17 ± 0.083.
In the case of EQYVVVANYQKQESSEISLSVGQVVDIIEKNESGWWFVSTAEEQGTVPATCLEGQ [W46T], the abundance fitness is -0.437 ± 0.096.
On to EQYVVVANYQKQESSEISLSVGQVVDIIEKNESGWWFVSTAEEQGFVPATCLEGQ [W46F], for which the abundance fitness is -0.036 ± 0.23.
For EQYVVVANYQKQESSEISLSVGQVVDIIEKNESGWWFVSTAEEQGMVPATCLEGQ [W46M], the abundance fitness was -0.039 ± 0.095.
With EQYVVVANYQKQESSEISLSVGQVVDIIEKNESGWWFVSTAEEQGYVPATCLEGQ [W46Y], the abundance fitness was -0.051 ± 0.22.
Consider EQYVVVANYQKQESSEISLSVGQVVDIIEKNESGWWFVSTAEEQGDVPATCLEGQ [W46D], for which the abundance fitness was -0.652 ± 0.2.
Turning to EQYVVVANYQKQESSEISLSVGQVVDIIEKNESGWWFVSTAEEQGKVPATCLEGQ [W46K], the abundance fitness was -0.273 ± 0.14.
Regarding EQYVVVANYQKQESSEISLSVGQVVDIIEKNESGWWFVSTAEEQGGVPATCLEGQ [W46G], the abundance fitness is -1.08 ± 0.1.
EQYVVVANYQKQESSEISLSVGQVVDIIEKNESGWWFVSTAEEQGCVPATCLEGQ [W46C]: the abundance fitness is -0.233 ± 0.3.
For EQYVVVANYQKQESSEISLSVGQVVDIIEKNESGWWFVSTAEEQGQVPATCLEGQ [W46Q], the abundance fitness was -0.37 ± 0.18.
Turning to EQYVVVANYQKQESSEISLSVGQVVDIIEKNESGWWFVSTAEEQGIVPATCLEGQ [W46I], the abundance fitness was -0.299 ± 0.16.
As for EQYVVVANYQKQESSEISLSVGQVVDIIEKNESGWWFVSTAEEQGAVPATCLEGQ [W46A], the abundance fitness is -0.599 ± 0.086.
To EQYVVVANYQKQESSEISLSVGQVVDIIEKNESGWWFVSTAEELGWVPATCLEGQ [Q44L] belongs -0.337 ± 0.089; to EQYVVVANYQKQESSEISLSVGQVVDIIEKNESGWWFVSTAEEEGWVPATCLEGQ [Q44E], -0.143 ± 0.12.
On to EQYVVVANYQKQESSEISLSVGQVVDIIEKNESGWWFVSTAEEIGWVPATCLEGQ [Q44I], for which the abundance fitness was -0.208 ± 0.28.
With EQYVVVANYQKQESSEISLSVGQVVDIIEKNESGWWFVSTAEEAGWVPATCLEGQ [Q44A], the abundance fitness is -0.187 ± 0.1.
Turning to EQYVVVANYQKQESSEISLSVGQVVDIIEKNESGWWFVSTAEEPGWVPATCLEGQ [Q44P], the abundance fitness was -0.807 ± 0.22.
Consider EQYVVVANYQKQESSEISLSVGQVVDIIEKNESGWWFVSTAEEMGWVPATCLEGQ [Q44M], for which the abundance fitness is -0.122 ± 0.13.
As to EQYVVVANYQKQESSEISLSVGQVVDIIEKNESGWWFVSTAEEDGWVPATCLEGQ [Q44D], the abundance fitness was -0.14 ± 0.11.
For EQYVVVANYQKQESSEISLSVGQVVDIIEKNESGWWFVSTAEESGWVPATCLEGQ [Q44S] the value was -0.136 ± 0.074.
With EQYVVVANYQKQESSEISLSVGQVVDIIEKNESGWWFVSTAEETGWVPATCLEGQ [Q44T], the abundance fitness was -0.101 ± 0.11.
Turning to EQYVVVANYQKQESSEISLSVGQVVDIIEKNESGWWFVSTAEEHGWVPATCLEGQ [Q44H], the abundance fitness was -0.085 ± 0.18.
Regarding EQYVVVANYQKQESSEISLSVGQVVDIIEKNESGWWFVSTAEEFGWVPATCLEGQ [Q44F], the abundance fitness is -0.207 ± 0.19.
For the variant EQYVVVANYQKQESSEISLSVGQVVDIIEKNESGWWFVSTAEEVGWVPATCLEGQ [Q44V], the abundance fitness was -0.225 ± 0.1.
Take EQYVVVANYQKQESSEISLSVGQVVDIIEKNESGWWFVSTAEEGGWVPATCLEGQ [Q44G]: the abundance fitness was -0.151 ± 0.061.
Regarding EQYVVVANYQKQESSEISLSVGQVVDIIEKNESGWWFVSTAEEKGWVPATCLEGQ [Q44K], the abundance fitness was -0.106 ± 0.12.
As for EQYVVVANYQKQESSEISLSVGQVVDIIEKNESGWWFVSTAEECGWVPATCLEGQ [Q44C], the abundance fitness is -0.216 ± 0.13.
As to EQYVVVANYQKQESSEISLSVGQVVDIIEKNESGWWFVSTAEEYGWVPATCLEGQ [Q44Y], the abundance fitness was -0.376 ± 0.19.
Take EQYVVVANYQKQESSEISLSVGQVVDIIEKNESGWWFVSTAEERGWVPATCLEGQ [Q44R]: the abundance fitness amounted to 0.001 ± 0.06.
